Measurements from patent publication US20160146827.

Assays:
[1] = tested on: Venus-thrombin-LUMP (LUMP fused to Venus via an 11-residue linker ASLVPRGSRGS that harbors a thrombin cleavage site)
[2] = tested on: mRuby-thrombin-fLov2 (fLov2 fused to mRuby via an 11-residue linker ASLVPRGSRGS that harbors a thrombin cleavage site)

**Q.** For thrombin protease, which “FA value of LUMP in the intact substrate” value [1] is on record?
**A.** Its value is “FA values for the 51-kDa LUMP-Venus substrate of 0.255±0.003”.

**Q.** And the “FA value of LUMP in the proteolyzed sensor” value [1]?
**A.** The value was “decreases to 0.166±0.001 in the proteolyzed sensor”.

**Q.** And the “donor/acceptor ratio of fluorescence emission during proteolysis” value [1]?
**A.** The value was “donor/acceptor ratio increasing ~4.7-fold”.

**Q.** And the “fluorescence emission spectra against time after addition of thrombin” value [2]?
**A.** Its value is “dramatic increase in fLov2 fluorescence and attenuation of the sensitized mRuby fluorescence”.
